{
  "source": "paper PMC4137059",
  "about": "(The Journal of Cell Biology, 2014)",
  "binders": {"B1": {"name": "Mtw1 complex (recombinant four-protein complex with a deletion of the N-terminal 172 residues of Dsn1) (complex)", "chain 1": "MSAPTMRSTSILTEHLGYPPISLVDDIINAVNEIMYKCTAAMEKYLLSKSKIGEEDYGEEIKSGVAKLESLLENSVDKNFDKLELYVLRNVLRIPEEYLDANVFRLENQKDLVIVDENELKKSEEKLREKVNDVELAFKKNEMLLKRVTKVKRLLFTIRGFKQKLNELLKCKDDVQLQKILESLKPIDDTMTLLTDSLRKLYVDSESTSSTEEVEALLQRLKTNGKQNNKDFRTRYIDIRTNNVLRKLGLLGDKEDEKQSAKPDARTQAGDIVSIDIEEPQLDLLDDVL", "chain 2": "MVNSHGIRYIRLKQVFNRALDQSISKLQSWDKVSSCFPQYVNSKQGAINVANCQRQLTEFWTELCQREFKEIMEERNVEQKLNELDELILEAKERYTDRDQDEVNKGPAIDELSSKELVECHLYSQRMHAIHEIDERLAKVNEMNDQLAQELKDLETQVEVEKNEIGKMYDEYLGSHTDQPANVLLVQSLNDMVLELKENY", "chain 3": "MSQGQSKKLDVTVEQLRSIYHQFHDILEEKTDLHLPKKEYDDDAVRREVQIQLQEFLLSAMTMASKSLEVVNADTVGKTVKQLIMESQEKYMEPFDLDLNEQVRKMYQEWEDETVKVAQLRQTGPAKINEVYNNSKDEYLAQLDGRIGVLQARMMQQQSADHDDSTDDADDHINWEHIKQDYVASLNELYQTQQDLPKVRYNVEKVKRLMDFLEED", "chain 4": "HSIMPNSSLQPFYSQPTAAGGPDMTTPQNISSSQQLLPAPQLFPYGSFHQQQLQQPHYIQRTRERKKSIGSQRGRRLSMLASQANGGSTIISPHKDIPEEDFYTVVGNASFGKNLQIRQLFNWCLMRSLHKLELKAKNQEEEGELEHLTKKSKLESTKAETDYVDPKRLAMVIIKEFVDDLKKDHIAIDWEDEEKYEDEDEEKILDNTENYDDTELRQLFQENDDDDDDDDEVDYSEIQRSRRKFSERRKALPKEPKKLLPNSKNVENTKNLSILTSKVNAIKNEVKEWAVTLDTSRPDLEWQELTSFSSQPLEPLSDTEEPDLAIADVETKLETKVDELRYQSHILNSHSLALNEITNSKVNKLNIETMRKISSETDDDHSQVINPQQLLKGLSLSFSKKLDL"}, "B2": {"name": "Mtw1-Nnf1 heterodimer (complex)", "chain 1": "B1 chain 1", "chain 2": "B1 chain 2"}},
  "key": {"Mtw1-Nnf1 heterodimer": {"molecular_target": "B2", "assay": "ITC"}, "Ndc80 complex": {"molecular_target": "Ndc80 complex (budding yeast, UniProt P40460;P33895;Q04477;P40014)", "sequence (P40460 whole entry, chain 1 of 4)": "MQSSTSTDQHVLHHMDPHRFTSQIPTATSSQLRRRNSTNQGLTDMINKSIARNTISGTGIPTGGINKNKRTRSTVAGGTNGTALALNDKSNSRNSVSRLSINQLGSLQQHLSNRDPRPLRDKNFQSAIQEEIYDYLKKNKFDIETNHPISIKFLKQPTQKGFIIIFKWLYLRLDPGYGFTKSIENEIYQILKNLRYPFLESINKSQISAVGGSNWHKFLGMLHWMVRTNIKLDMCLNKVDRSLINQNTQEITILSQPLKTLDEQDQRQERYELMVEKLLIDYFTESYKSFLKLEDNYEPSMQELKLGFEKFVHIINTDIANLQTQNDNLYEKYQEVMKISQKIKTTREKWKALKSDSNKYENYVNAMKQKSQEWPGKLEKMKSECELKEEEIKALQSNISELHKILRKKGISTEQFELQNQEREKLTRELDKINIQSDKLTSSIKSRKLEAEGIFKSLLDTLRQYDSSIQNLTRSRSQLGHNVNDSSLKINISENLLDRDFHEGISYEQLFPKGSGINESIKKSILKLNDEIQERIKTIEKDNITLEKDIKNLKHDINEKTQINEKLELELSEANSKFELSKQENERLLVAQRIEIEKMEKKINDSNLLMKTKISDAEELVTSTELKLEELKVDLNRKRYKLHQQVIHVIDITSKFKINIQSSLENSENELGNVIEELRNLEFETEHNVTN", "sequence (P33895 whole entry, chain 2 of 4)": "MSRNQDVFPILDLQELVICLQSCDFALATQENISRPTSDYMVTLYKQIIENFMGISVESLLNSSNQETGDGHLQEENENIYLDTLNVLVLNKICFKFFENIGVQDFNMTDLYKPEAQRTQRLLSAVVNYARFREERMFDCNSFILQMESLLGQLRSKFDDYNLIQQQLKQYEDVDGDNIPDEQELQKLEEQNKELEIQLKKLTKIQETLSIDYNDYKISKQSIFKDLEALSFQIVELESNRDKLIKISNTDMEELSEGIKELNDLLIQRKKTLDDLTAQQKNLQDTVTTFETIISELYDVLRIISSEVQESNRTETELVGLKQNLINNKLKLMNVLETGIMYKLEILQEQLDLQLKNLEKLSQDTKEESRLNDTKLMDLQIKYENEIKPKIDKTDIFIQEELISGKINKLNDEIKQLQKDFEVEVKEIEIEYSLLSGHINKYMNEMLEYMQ", "sequence (Q04477 whole entry, chain 3 of 4)": "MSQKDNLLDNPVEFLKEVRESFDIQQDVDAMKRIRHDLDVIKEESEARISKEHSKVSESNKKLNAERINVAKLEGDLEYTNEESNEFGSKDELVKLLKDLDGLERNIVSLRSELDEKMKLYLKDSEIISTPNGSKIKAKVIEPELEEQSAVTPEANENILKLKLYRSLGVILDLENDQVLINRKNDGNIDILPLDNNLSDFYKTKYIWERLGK", "sequence (P40014 whole entry, chain 4 of 4)": "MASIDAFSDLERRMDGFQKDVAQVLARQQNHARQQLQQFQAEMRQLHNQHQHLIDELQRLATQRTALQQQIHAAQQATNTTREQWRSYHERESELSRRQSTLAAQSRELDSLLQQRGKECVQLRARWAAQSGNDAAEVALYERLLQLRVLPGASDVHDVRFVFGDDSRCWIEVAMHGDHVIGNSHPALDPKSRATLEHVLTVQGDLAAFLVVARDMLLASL", "assay": "SEC"}, "Ame1–Okp1 complex": {"molecular_target": "Ame1–Okp1 complex (budding yeast, UniProt P38313;P53298)", "sequence (P53298 whole entry, one chain of several)": "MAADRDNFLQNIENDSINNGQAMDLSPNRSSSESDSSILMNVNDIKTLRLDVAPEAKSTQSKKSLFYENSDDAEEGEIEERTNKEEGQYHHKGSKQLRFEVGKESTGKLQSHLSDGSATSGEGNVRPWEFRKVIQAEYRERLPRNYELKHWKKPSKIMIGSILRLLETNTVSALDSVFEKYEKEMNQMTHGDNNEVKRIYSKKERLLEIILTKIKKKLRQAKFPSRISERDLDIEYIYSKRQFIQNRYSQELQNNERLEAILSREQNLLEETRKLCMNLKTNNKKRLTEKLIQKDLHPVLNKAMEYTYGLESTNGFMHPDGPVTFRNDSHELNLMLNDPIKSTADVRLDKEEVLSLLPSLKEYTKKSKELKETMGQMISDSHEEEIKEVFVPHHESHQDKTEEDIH", "assay": "ITC"}},
  "note": "No end group written: not given here.",
  "data": [
    {"binder": "{GST}-MDRDTKLAFRLRGSHSRRTDDIDDDVIVFK (domain or fragment)", "note": "[GST-Ame1^1-30]", "values": [
      {"measurement": "Kd", "setting": "Mtw1-Nnf1 heterodimer", "result": 1500, "unit": "nM"}
    ]},
    {"binder": "B1", "values": [
      {"measurement": "binding result", "setting": "Ndc80 complex", "result": "binds"}
    ]},
    {"binder": "B2", "values": [
      {"measurement": "Kd", "setting": "Ame1–Okp1 complex", "result": 1600, "unit": "nM"},
      {"measurement": "stoichiometry N", "setting": "Ame1–Okp1 complex", "result": 1}
    ]}
  ]
}
